Source: publication PMC5934295 (Neuron, 2018)

B1: mouse CALHM1-FLAG (natural protein, UniProt D3Z291 1-348, looked up)
chain: MDKFRMIFQFLQSNQESFMNGICGIMALASAQMYSAFDFNCPCLPGYNVVYSLGILLTPPLVLFLLGLVMNNNISMLAEEWKRPAGRRAKDPAVLRYMFCSMAQRALIAPVVWVAVTLLDGKCFLCAFCTAVPVATLGNGSLVPGLPAPELARLLARVPCPEIYDGNWLLAREVAVRYLRCISQALGWSFVLLTTLLAFVVRSVRPCFTQVAFLKSKYWSHYIDIERKLFDETCTEHAKAFAKVCIQQFFEAMNHDLELGHTHGVLATATATATATEAVQSPSDRTEEEREKLRGITDQGTMNRLLTSWHKCKPPLRLGQEAPLMSNGWAGGEPRPPRKEVATYFSKV

Legend:
native gel or EMSA = target: the molecule itself; assay: native gel or EMSA
mouse CALHM1-FLAG = target: B1; assay: native gel or EMSA
[1] = target: the molecule itself; assay: single-molecule photobleaching

Binder: B1
- stoichiometry N (native gel or EMSA): ~6

B2: mouse CALHM3-GFP (natural protein, UniProt J3QMI4 1-347, looked up)
chain: MDRFRMLFQHLQSSSESVMNGICLLLAAVTVKIYSSLDFNCPCLERYNALYGLGLLLTPPLALFLCGLLVNRQSVLMVEEWRRPAGHRRKDLGIIRYMCSSVLQRALAAPLVWILLALLDGKCFVCAFSNSVDPEKFLDFANMTPRQVQLFLAKVPCKEDELVKNSPARKAVSRYLRCLSQAIGWSITLLVIVVAFLARCLRPCFDQTVFLQRRYWSNYMDLEQKLFDETCCEHARDFAHRCVLHFFANMQSELRALGLRRDPAGGIPESQESSEPPELREDRDSGNGKAHLRAISSREQVDQLLSTWYSSKPPLDLAASPRRWGPGLNHRAPIAAPGTKLCHQLNV
- stoichiometry N (mouse CALHM1-FLAG): ≥ 1 CALHM3 subunit per channel

B3: CALHM3-mCherry (natural protein, mouse, UniProt J3QMI4 1-347, looked up)
chain: MDRFRMLFQHLQSSSESVMNGICLLLAAVTVKIYSSLDFNCPCLERYNALYGLGLLLTPPLALFLCGLLVNRQSVLMVEEWRRPAGHRRKDLGIIRYMCSSVLQRALAAPLVWILLALLDGKCFVCAFSNSVDPEKFLDFANMTPRQVQLFLAKVPCKEDELVKNSPARKAVSRYLRCLSQAIGWSITLLVIVVAFLARCLRPCFDQTVFLQRRYWSNYMDLEQKLFDETCCEHARDFAHRCVLHFFANMQSELRALGLRRDPAGGIPESQESSEPPELREDRDSGNGKAHLRAISSREQVDQLLSTWYSSKPPLDLAASPRRWGPGLNHRAPIAAPGTKLCHQLNV
- stoichiometry N [1]: 6
